Results reported in PMC4148842.
pKd: −log10 of the molar value.

How the values were obtained:
peptide II-44F = test: solid-phase binding assay (SPBA); details: read off a plot
peptide II-44B = test: solid-phase binding assay (SPBA); details: read off a plot
peptide II-44E = test: solid-phase binding assay (SPBA); details: read off a plot
peptide II-44I = test: solid-phase binding assay (SPBA); details: read off a plot
peptide II-44A = test: solid-phase binding assay (SPBA); details: read off a plot
peptide II-44C = test: solid-phase binding assay (SPBA); details: read off a plot
peptide II-44G = test: solid-phase binding assay (SPBA); details: parent: est. 0.10; read off a plot
[1] = biological target: Fibrous bovine type I collagen (bovine) (UniProt P02453); test: ELISA; solid-phase binding assay (SPBA), Fig. 1: Toolkit II peptides, fibrillar type I collagen or GPP10 coated at 10 μg/ml on Immulon 2 HB wells; MMP preparation or Hpx at 83 nM in TBS with 1 mg/ml BSA and 0.1% Tween-20, 1 h at 24 °C; detected with an antibody to the MMP-13 hinge region (Hpx: anti-GST), A450
Sequence of Fibrous bovine type I collagen (bovine) (P02453 162-1217, chain 1 of 2): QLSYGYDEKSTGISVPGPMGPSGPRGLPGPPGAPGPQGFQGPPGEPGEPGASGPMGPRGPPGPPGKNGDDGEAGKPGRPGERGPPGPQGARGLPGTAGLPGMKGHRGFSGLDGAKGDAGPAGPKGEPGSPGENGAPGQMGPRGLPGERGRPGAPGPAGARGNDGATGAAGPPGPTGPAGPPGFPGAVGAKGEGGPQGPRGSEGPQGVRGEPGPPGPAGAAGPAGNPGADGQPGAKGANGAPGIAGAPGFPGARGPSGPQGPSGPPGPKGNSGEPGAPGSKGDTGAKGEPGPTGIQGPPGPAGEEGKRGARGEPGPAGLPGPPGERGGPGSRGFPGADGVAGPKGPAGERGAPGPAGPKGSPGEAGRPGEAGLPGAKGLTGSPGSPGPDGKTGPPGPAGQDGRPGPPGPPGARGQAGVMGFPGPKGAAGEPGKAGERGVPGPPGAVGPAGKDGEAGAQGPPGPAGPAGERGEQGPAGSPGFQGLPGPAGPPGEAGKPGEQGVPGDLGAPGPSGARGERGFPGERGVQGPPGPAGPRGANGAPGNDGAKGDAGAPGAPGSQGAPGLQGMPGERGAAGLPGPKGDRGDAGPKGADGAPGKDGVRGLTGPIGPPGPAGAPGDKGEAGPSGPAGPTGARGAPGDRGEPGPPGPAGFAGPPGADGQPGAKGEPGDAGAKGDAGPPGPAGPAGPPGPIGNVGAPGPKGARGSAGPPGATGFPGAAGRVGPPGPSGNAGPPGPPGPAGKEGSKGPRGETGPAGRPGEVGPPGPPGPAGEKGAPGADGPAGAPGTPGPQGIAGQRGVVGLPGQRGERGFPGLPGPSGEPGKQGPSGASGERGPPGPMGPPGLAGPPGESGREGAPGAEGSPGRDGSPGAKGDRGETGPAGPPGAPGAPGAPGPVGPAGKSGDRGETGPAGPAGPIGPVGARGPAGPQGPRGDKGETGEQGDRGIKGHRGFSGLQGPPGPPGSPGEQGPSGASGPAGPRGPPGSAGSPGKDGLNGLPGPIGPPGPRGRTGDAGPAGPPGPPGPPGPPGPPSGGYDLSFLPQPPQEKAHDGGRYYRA
Sequence of Fibrous bovine type I collagen (bovine) (P02465 80-1117, chain 2 of 2, further chain): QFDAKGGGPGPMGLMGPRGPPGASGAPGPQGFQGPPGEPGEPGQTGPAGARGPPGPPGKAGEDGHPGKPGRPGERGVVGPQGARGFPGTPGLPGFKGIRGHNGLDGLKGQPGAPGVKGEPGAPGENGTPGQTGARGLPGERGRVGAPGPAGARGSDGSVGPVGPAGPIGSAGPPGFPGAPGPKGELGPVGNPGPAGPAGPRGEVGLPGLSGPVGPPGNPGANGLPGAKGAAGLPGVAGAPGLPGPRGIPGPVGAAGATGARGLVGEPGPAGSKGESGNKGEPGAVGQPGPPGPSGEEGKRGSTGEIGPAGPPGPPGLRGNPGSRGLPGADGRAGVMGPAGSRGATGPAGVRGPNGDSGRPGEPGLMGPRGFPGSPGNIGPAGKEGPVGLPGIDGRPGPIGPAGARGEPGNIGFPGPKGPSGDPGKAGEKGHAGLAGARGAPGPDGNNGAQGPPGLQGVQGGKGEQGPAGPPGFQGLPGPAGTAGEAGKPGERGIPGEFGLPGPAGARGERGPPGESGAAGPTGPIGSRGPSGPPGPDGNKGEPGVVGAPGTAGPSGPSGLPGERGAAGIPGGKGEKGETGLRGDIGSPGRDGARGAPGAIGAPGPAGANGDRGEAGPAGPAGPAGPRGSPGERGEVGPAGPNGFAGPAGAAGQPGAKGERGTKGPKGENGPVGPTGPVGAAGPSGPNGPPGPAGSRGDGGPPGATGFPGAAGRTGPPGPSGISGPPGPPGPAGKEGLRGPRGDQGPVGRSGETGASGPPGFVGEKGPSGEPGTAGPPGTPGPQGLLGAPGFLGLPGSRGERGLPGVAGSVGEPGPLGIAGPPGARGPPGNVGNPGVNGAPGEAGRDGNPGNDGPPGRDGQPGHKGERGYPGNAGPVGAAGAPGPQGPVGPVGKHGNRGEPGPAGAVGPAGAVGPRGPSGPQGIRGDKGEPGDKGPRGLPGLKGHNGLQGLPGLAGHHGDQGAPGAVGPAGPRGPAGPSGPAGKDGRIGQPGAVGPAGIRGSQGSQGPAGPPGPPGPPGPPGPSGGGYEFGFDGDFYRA

peptide II-44D = test: solid-phase binding assay (SPBA); details: parent: est. 0.19; read off a plot
peptide II-44H = test: solid-phase binding assay (SPBA); details: parent: est. 0.31; read off a plot
peptide II-44J [2] = test: solid-phase binding assay (SPBA); details: parent: est. 0.26; read off a plot
peptide II-44J [3] = test: ELISA; SPBA on truncated and Ala-substituted II-44 variant peptides, carried out as for Fig. 1 (Fig. 4)
Toolkit peptide II-52 = test: ELISA; solid-phase binding assay (SPBA), Fig. 1: Toolkit II peptides, fibrillar type I collagen or GPP10 coated at 10 μg/ml on Immulon 2 HB wells; MMP preparation or Hpx at 83 nM in TBS with 1 mg/ml BSA and 0.1% Tween-20, 1 h at 24 °C; detected with an antibody to the MMP-13 hinge region (Hpx: anti-GST), A450
Toolkit peptide II-44 = test: as above
Toolkit peptide II-50 = test: as above
Toolkit peptide II-24 = test: as above
Toolkit peptide II-49 = test: as above
Toolkit peptide II-51 = test: as above
Toolkit peptide II-17 = test: as above
Toolkit peptide II-54 = test: as above
Toolkit peptide II-45 = test: as above
Toolkit peptide II-13 = test: as above
Toolkit peptide II-55 = test: as above
Toolkit peptide II-56 = test: as above
Toolkit peptide II-28 = test: as above
Toolkit peptide II-21 = test: as above
Toolkit peptide II-53 = test: as above
[4] = biological target: Fibrous bovine type I collagen (bovine) (UniProt P02453); test: ELISA; SPBA, increasing concentrations of MMP-13 or MMP-13(E204A) on wells coated with fibrillar or monomeric type I collagen (10 μg/ml); KD from fitted curves (Fig. 3)
[5] = biological target: Monomeric collagen (type I) (UniProt P02453); test: as above
Sequence of Monomeric collagen (type I) (P02453 162-1217, chain 1 of 2): as the sequence (P02453 162-1217, chain 1 of 2) above
Sequence of Monomeric collagen (type I) (P02465 80-1117, chain 2 of 2, further chain): as the sequence (P02465 80-1117, chain 2 of 2, further chain) above

Substance: MMP-13 (from UniProt P45452) E204A
- response (peptide II-44F; parent: est. 0.08): 0.57 A450
- response (peptide II-44B; parent: est. 0.09): 0.15 A450
- response (peptide II-44E; parent: est. 0.16): 0.95 A450
- response (peptide II-44I; parent: est. 0.20): 1.1 A450
- response (peptide II-44A; parent: est. 0.19): 1.1 A450
- response (peptide II-44C; parent: est. 0.18): 0.87 A450
- response (peptide II-44G): 0.57 A450

Substance: proMMP-13 (from UniProt P45452 20-471) (enzyme)
- A450 [1]: > 1 A450

Substance: proMMP-13 (from UniProt P45452) E204A
- response (peptide II-44F; parent: est. 0.09): 0.12 A450
- response (peptide II-44B; parent: est. 0.08): 0.08 A450
- response (peptide II-44E; parent: est. 0.33): 0.31 A450
- response (peptide II-44I; parent: est. 0.41): 0.36 A450
- response (peptide II-44D): 0.15 A450
- response (peptide II-44H): 0.29 A450
- response (peptide II-44J [2]): 0.29 A450
- response (peptide II-44A; parent: est. 0.41): 0.41 A450
- response (peptide II-44C; parent: est. 0.24): 0.23 A450

Substance: MMP-13(E204A) (enzyme)
- A450 (peptide II-44J [3]): 0.8 A450
- A450 (Toolkit peptide II-52): > 0.3 A450
- A450 (Toolkit peptide II-44): > 1.2 A450
- A450 (Toolkit peptide II-50): > 0.3 A450
- A450 (Toolkit peptide II-24): < 0.2 A450
- A450 (Toolkit peptide II-49): > 0.3 A450
- A450 (Toolkit peptide II-51): > 0.3 A450
- A450 (Toolkit peptide II-17): > 0.3 A450
- A450 (Toolkit peptide II-54): > 0.3 A450
- A450 (Toolkit peptide II-45): > 0.3 A450
- A450 (Toolkit peptide II-13): > 0.3 A450
- A450 (Toolkit peptide II-55): > 0.3 A450
- A450 (Toolkit peptide II-56): > 0.3 A450
- A450 (Toolkit peptide II-28): < 0.2 A450
- A450 (Toolkit peptide II-21): > 0.3 A450
- A450 (Toolkit peptide II-53): > 0.3 A450
- pKd [4]: 7.28
- pKd [5]: 7.59

Substance: MMP-13 GST-Hpx domain (domain or fragment)
- A450 (peptide II-44J [3]): 0.4 A450
- A450 (Toolkit peptide II-44): 0.8 A450
